From patent publication US20250136963A1 (DENALI THERAPEUTICS, published 2025)

B1: ETV:IDUA Fusion 3 (Fc fusion)
chain 1: DKTHTCPPCPAPEAAGGPSVFLFPPKPKDTLMISRTPEVTCVVVDVSHEDPEVKFNWYVDGVEVHNAKTKPREEQYNSTYRVVSVLTVLHQDWLNGKEYKCKVSNKALSAPIEKTISKAKGQPREPQVYTLPPSRDELTKNQVSLWCLVKGFYPSDIAVEWESYGTEWANYKTTPPVLDSDGSFFLYSKLTVTKEEWQQGFVFSCSVMHEALHNHYTQKSLSLSPGK
chain 2: EAPHLVQVDAARALWPLRRFWRSTGFCPPLPHSQADQYVLSWDQQLNLAYVGAVPHRGIKQVRTHWLLELVTTRGSTGRGLSYNFTHLDGYLDLLRENQLLPGFELMGSASGHFTDFEDKQQVFEWKDLVSSLARRYIGRYGLAHVSKWNFETWNEPDHHDFDNVSMTMQGFLNYYDACSEGLRAASPALRLGGPGDSFHTPPRSPLSWGLLRHCHDGTNFFTGEAGVRLDYISLHRKGARSSISILEQEKVVAQQIRQLFPKFADTPIYNDEADPLVGWSLPQPWRADVTYAAMVVKVIAQHQNLLLANTTSAFPYALLSNDNAFLSYHPHPFAQRTLTARFQVNNTRPPHVQLLRKPVLTAMGLLALLDEEQLWAEVSQAGTVLDSNHTVGVLASAHRPQGPADAWRAAVLIYASDDTRAHPNRSVAVTLRLRGVPPGPGLVYVTRYLDNGLCSPDGEWRRLGRPVFPTAEQFRRMRAAEDPVAAAPRPLPAGGRLTLRPALRLPSLLLVHVCARPEKPPGQVTRLRALPLTQGQLVLVWSDEHVGSKCLWTYEIQFSQDGKAYTPVSRKPSTFNLFVFSPDTGAVSGSYRVRALDYWARPGPFSDPVPYLEVPVPRGPPSPGNPGGGGSDKTHTCPPCPAPEAAGGPSVFLFPPKPKDTLMISRTPEVTCVVVDVSHEDPEVKFNWYVDGVEVHNAKTKPREEQYNSTYRVVSVLTVLHQDWLNGKEYKCKVSNKALSAPIEKTISKAKGQPREPQVYTLPPSRDELTKNQVSLSCAVKGFYPSDIAVEWESNGQPENNYKTTPPVLDSDGSFFLVSKLTVDKSRWQQGNVFSCSVMHEALHNHYTQKSLSLSPGK
notes: Heterodimer of the two chains; also called third N-terminal monozyme IDUA-Fc fusion protein
B2: ETV:IDUA Fusion 4 (Fc fusion)
chain 1: B1 chain 1
chain 2: EAPHLVQVDAARALWPLRRFWRSTGFCPPLPHSQADQYVLSWDQQLNLAYVGAVPHRGIKQVRTHWLLELVTTRGSTGRGLSYNFTHLDGYLDLLRENQLLPGFELMGSASGHFTDFEDKQQVFEWKDLVSSLARRYIGRYGLAHVSKWNFETWNEPDHHDFDNVSMTMQGFLNYYDACSEGLRAASPALRLGGPGDSFHTPPRSPLSWGLLRHCHDGTNFFTGEAGVRLDYISLHRKGARSSISILEQEKVVAQQIRQLFPKFADTPIYNDEADPLVGWSLPQPWRADVTYAAMVVKVIAQHQNLLLANTTSAFPYALLSNDNAFLSYHPHPFAQRTLTARFQVNNTRPPHVQLLRKPVLTAMGLLALLDEEQLWAEVSQAGTVLDSNHTVGVLASAHRPQGPADAWRAAVLIYASDDTRAHPNRSVAVTLRLRGVPPGPGLVYVTRYLDNGLCSPDGEWRRLGRPVFPTAEQFRRMRAAEDPVAAAPRPLPAGGRLTLRPALRLPSLLLVHVCARPEKPPGQVTRLRALPLTQGQLVLVWSDEHVGSKCLWTYEIQFSQDGKAYTPVSRKPSTFNLFVFSPDTGAVSGSYRVRALDYWARPGPFSDPVPYLEVPVGGGGSDKTHTCPPCPAPEAAGGPSVFLFPPKPKDTLMISRTPEVTCVVVDVSHEDPEVKFNWYVDGVEVHNAKTKPREEQYNSTYRVVSVLTVLHQDWLNGKEYKCKVSNKALSAPIEKTISKAKGQPREPQVYTLPPSRDELTKNQVSLSCAVKGFYPSDIAVEWESNGQPENNYKTTPPVLDSDGSFFLVSKLTVDKSRWQQGNVFSCSVMHEALHNHYTQKSLSLSPGK
notes: Heterodimer of the two chains; also called fourth N-terminal monozyme IDUA-Fc fusion protein
B3: ETV:IDUA Fusion 6 (Fc fusion)
chain 1: B1 chain 1
chain 2: DKTHTCPPCPAPEAAGGPSVFLFPPKPKDTLMISRTPEVTCVVVDVSHEDPEVKFNWYVDGVEVHNAKTKPREEQYNSTYRVVSVLTVLHQDWLNGKEYKCKVSNKALSAPIEKTISKAKGQPREPQVYTLPPSRDELTKNQVSLSCAVKGFYPSDIAVEWESNGQPENNYKTTPPVLDSDGSFFLVSKLTVDKSRWQQGNVFSCSVMHEALHNHYTQKSLSLSPGKGGGGSEAPHLVQVDAARALWPLRRFWRSTGFCPPLPHSQADQYVLSWDQQLNLAYVGAVPHRGIKQVRTHWLLELVTTRGSTGRGLSYNFTHLDGYLDLLRENQLLPGFELMGSASGHFTDFEDKQQVFEWKDLVSSLARRYIGRYGLAHVSKWNFETWNEPDHHDFDNVSMTMQGFLNYYDACSEGLRAASPALRLGGPGDSFHTPPRSPLSWGLLRHCHDGTNFFTGEAGVRLDYISLHRKGARSSISILEQEKVVAQQIRQLFPKFADTPIYNDEADPLVGWSLPQPWRADVTYAAMVVKVIAQHQNLLLANTTSAFPYALLSNDNAFLSYHPHPFAQRTLTARFQVNNTRPPHVQLLRKPVLTAMGLLALLDEEQLWAEVSQAGTVLDSNHTVGVLASAHRPQGPADAWRAAVLIYASDDTRAHPNRSVAVTLRLRGVPPGPGLVYVTRYLDNGLCSPDGEWRRLGRPVFPTAEQFRRMRAAEDPVAAAPRPLPAGGRLTLRPALRLPSLLLVHVCARPEKPPGQVTRLRALPLTQGQLVLVWSDEHVGSKCLWTYEIQFSQDGKAYTPVSRKPSTFNLFVFSPDTGAVSGSYRVRALDYWARPGPFSDPVPYLEVPVPRGPPSPGNP
notes: Heterodimer of the two chains; also called C-terminal monozyme IDUA-Fc fusion protein

Target: T1, human apical domain TfR (human, UniProt P02786 198-378)
T1 construct: also called human TfR; human transferrin receptor 1 apical domain
T1 sequence (P02786 198-378 limits assumed): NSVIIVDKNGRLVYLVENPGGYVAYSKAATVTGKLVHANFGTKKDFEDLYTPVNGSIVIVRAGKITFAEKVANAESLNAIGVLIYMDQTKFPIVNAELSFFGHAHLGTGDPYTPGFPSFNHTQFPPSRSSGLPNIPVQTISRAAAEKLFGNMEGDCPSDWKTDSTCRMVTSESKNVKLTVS
Assay: SPR (Biacore 8K), fusion captured on Protein A chip, human TfR apical domain as analyte, 1:1 Langmuir fit, monovalent
Description: To determine whether IDUA-Fc fusion proteins with engineered TfR binding affects the ability of the modified Fc domain to interact with human TfR, the affinity of ETV:IDUA Fusions 3, 4, and 6 (Example 1) for human TfR was measured by surface plasmon resonance (SPR) using a Biacore 8K instrument (Cytiva). Five (5) μg/mL of the IDUA-Fc fusion proteins were captured for 1 minute on Protein A-coated Biacore™ Series S CM5 sensor chip and serial 3-fold dilutions of human apical domain TfR were injected at a flow rate of 30 μL/min. Each sample was analyzed with five consecutive 60-second injections with increasing human TfR concentrations followed by a 60-second dissociation at the end of the injection cycle. After each injection, the chip was regenerated using 10 mM glycine-HCl (pH 1.5). Binding response was corrected by subtracting the RU from a flow cell capturing an irrelevant IgG at similar density A. 1:1 Languir model of simultaneous fitting of kₒₙ and koff was used for kinetics analysis using Biacore™ Insight Evaluation Software.

Binder | Kd [nM]
B1 | 340
B2 | 355
B3 | 200
